The Human Domainome abundance scans (Beltran et al. 2025)
± gives the uncertainty stated by the source.

B1: POU domain, class 4, transcription factor 2, residues 256 to 327; numbered along this chain, Q12837 (parent)
chain: RDLEAFAERFKQRRIKLGVTQADVGSALANLKIPGVGSLSQSTICRFESLTLSHNNMIALKPILQAWLEEAE

Variants of: B1
Assay: abundance fitness (aPCA) (normalised: wild type 0, dead -1); higher = more abundant; growth selection in yeast, the domain comes from the species named
Conditions: Homo sapiens

Variant | abundance fitness
K32S | -0.072 ± 0.065
K32W | -0.188 ± 0.082
K32N | 0.189 ± 0.3
K32H | -0.178 ± 0.17
K32M | -0.215 ± 0.13
K32L | -0.279 ± 0.065
K32V | -0.021 ± 0.097
K32I | -0.181 ± 0.058
K32Y | 0.061 ± 0.19
K32F | -0.372 ± 0.14
K32T | -0.112 ± 0.11
K32G | -0.24 ± 0.077
K32P | -0.33 ± 0.093
K32R | -0.084 ± 0.047
K32D | 0.054 ± 0.23
K32E | 0.052 ± 0.11
K32Q | -0.012 ± 0.069
K32C | -0.192 ± 0.19
L31I | 0.057 ± 0.24
L31P | -0.382 ± 0.098
L31H | -0.379 ± 0.25
L31G | -0.572 ± 0.16
L31C | -0.102 ± 0.31
L31K | 0.002 ± 0.22

Variant | abundance fitness
L31Y | 0.041 ± 0.23
L31W | 0.038 ± 0.095
L31D | -0.509 ± 0.26
L31Q | 0.058 ± 0.08
L31A | -0.426 ± 0.13
L31R | -0.081 ± 0.061
L31F | -0.018 ± 0.16
L31M | 0.032 ± 0.11
L31T | -0.149 ± 0.1
L31E | -0.112 ± 0.1
A27N | -0.323 ± 0.14
A27M | -0.234 ± 0.092
A27F | -0.114 ± 0.19
A27R | -0.178 ± 0.045
A27W | -0.174 ± 0.082
A27H | -0.172 ± 0.12
A27G | -0.39 ± 0.083
A27E | -0.029 ± 0.11
A27P | -0.941 ± 0.12
A27C | -0.215 ± 0.095
A27T | -0.434 ± 0.11
A27L | -0.302 ± 0.034
A27V | -0.265 ± 0.092
A27D | -0.123 ± 0.2

Variant | abundance fitness
A27S | -0.114 ± 0.048
A27Q | 0.068 ± 0.069
A29V | -0.237 ± 0.092
A29E | -0.239 ± 0.079
A29M | -0.046 ± 0.11
A29S | 0.019 ± 0.052
A29K | 0.042 ± 0.1
A29I | -0.323 ± 0.18
A29D | 0.03 ± 0.44
A29Q | 0.108 ± 0.078
A29W | -0.799 ± 0.22
A29N | -0.116 ± 0.22
A29Y | -0.165 ± 0.14
A29C | -0.136 ± 0.093
A29L | -0.158 ± 0.045
A29G | -0.009 ± 0.082
A29T | -0.107 ± 0.072
A29F | -0.544 ± 0.14
A29H | -0.198 ± 0.1
V24Y | -0.975 ± 0.4
I33M | -0.162 ± 0.094
I33W | -0.414 ± 0.099
I33L | -0.081 ± 0.066
I33N | -0.434 ± 0.16

Variant | abundance fitness
I33P | -0.357 ± 0.1
I33K | -0.421 ± 0.094
I33A | -0.295 ± 0.063
I33Y | -0.126 ± 0.11
I33T | -0.311 ± 0.069
I33D | -0.225 ± 0.099
I33G | -0.116 ± 0.11
I33E | -0.205 ± 0.18
I33F | -0.211 ± 0.093
I33S | -0.274 ± 0.048
I33Q | -0.426 ± 0.17
I33C | -0.395 ± 0.22
I33V | 0.008 ± 0.055
I33H | -0.438 ± 0.17
P34T | -0.275 ± 0.092
P34D | -0.221 ± 0.13
P34I | -0.402 ± 0.22
P34M | -0.175 ± 0.13
P34E | -0.036 ± 0.075
P34Q | -0.263 ± 0.1
P34G | -0.1 ± 0.1
P34C | -0.679 ± 0.19
P34Y | -0.515 ± 0.36
P34W | -0.528 ± 0.12

Variant | abundance fitness
P34R | -0.231 ± 0.05
P34K | -0.008 ± 0.088
P34H | -0.073 ± 0.12
P34S | -0.106 ± 0.054
P34A | -0.244 ± 0.094
L28I | 0.072 ± 0.12
L28V | -0.143 ± 0.094
L28D | -0.596 ± 0.44
L28T | -0.528 ± 0.084
L28H | -0.786 ± 0.19
L28F | -0.215 ± 0.12
L28P | -0.935 ± 0.14
L28S | -0.636 ± 0.064
L28R | -0.643 ± 0.045
L28W | -0.597 ± 0.1
L28E | -0.657 ± 0.17
L28A | -0.654 ± 0.14
L28M | 0.008 ± 0.085
L28Y | -0.747 ± 0.16
G25Y | -0.404 ± 0.29
G25P | -0.487 ± 0.1
G25T | 0.117 ± 0.097
G25C | 0.131 ± 0.14
G25R | -0.283 ± 0.046

Variant | abundance fitness
G25S | 0.166 ± 0.052
G25F | -0.494 ± 0.24
G25A | -0.006 ± 0.094
G25N | -0.593 ± 0.26
G25E | 0.127 ± 0.09
G25D | -0.501 ± 0.26
G25Q | -0.207 ± 0.11
G25I | -0.145 ± 0.18
G25M | -0.242 ± 0.21
G25L | -0.031 ± 0.059
G25K | -0.264 ± 0.19
G25W | -0.116 ± 0.064
N30G | -0.103 ± 0.097
N30T | -0.112 ± 0.092
N30L | -0.244 ± 0.064
N30K | 0.054 ± 0.14
N30P | -0.146 ± 0.054
N30V | -0.432 ± 0.11
N30Y | -0.183 ± 0.27
N30C | -0.094 ± 0.13
N30E | -0.456 ± 0.16
N30I | -0.766 ± 0.27
N30M | -0.5 ± 0.11
N30W | -0.315 ± 0.08

Variant | abundance fitness
N30S | -0.059 ± 0.061
N30H | -0.087 ± 0.13
N30R | -0.189 ± 0.059
N30Q | -0.059 ± 0.067
N30A | -0.116 ± 0.082
S26I | -0.275 ± 0.18
S26H | -0.059 ± 0.094
S26W | 0.008 ± 0.093
S26P | -0.694 ± 0.089
S26Q | -0.07 ± 0.095
S26T | -0.08 ± 0.16
S26M | -0.057 ± 0.11
S26A | 0.176 ± 0.081
S26E | 0.048 ± 0.11
S26V | -0.234 ± 0.084
S26Y | -0.05 ± 0.12
S26K | -0.176 ± 0.35
S26N | 0.239 ± 0.2
S26F | -0.032 ± 0.12
S26G | -0.164 ± 0.069
S26D | -0.076 ± 0.12
S26R | 0.062 ± 0.055
S26L | 0.061 ± 0.054
